Measurements published in patent publication US20020122804.

Columns and labels:
[1] = molecular target: BSA (Fraction V, Sigma), P02769
[2] = molecular target: T1, hyphal wall protein 1 (Hwp1) on C. albicans germ tube surfaces, P46593
T1 chain: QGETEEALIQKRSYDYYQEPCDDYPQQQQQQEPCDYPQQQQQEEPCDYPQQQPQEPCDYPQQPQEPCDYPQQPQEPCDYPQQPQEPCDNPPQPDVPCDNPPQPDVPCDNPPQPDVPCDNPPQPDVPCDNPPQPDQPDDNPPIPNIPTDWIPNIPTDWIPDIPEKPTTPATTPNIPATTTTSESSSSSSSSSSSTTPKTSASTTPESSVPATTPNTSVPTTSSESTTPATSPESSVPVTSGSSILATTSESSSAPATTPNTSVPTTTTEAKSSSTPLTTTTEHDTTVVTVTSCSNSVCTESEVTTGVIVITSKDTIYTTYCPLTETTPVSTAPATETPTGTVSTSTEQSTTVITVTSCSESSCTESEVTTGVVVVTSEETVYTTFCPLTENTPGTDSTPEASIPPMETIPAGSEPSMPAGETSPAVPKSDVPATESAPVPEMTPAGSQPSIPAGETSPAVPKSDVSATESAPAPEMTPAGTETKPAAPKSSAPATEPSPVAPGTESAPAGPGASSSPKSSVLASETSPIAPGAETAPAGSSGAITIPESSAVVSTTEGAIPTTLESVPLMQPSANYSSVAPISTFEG

Chain of BSA (Fraction V, Sigma), P02769 (P02769 25-607): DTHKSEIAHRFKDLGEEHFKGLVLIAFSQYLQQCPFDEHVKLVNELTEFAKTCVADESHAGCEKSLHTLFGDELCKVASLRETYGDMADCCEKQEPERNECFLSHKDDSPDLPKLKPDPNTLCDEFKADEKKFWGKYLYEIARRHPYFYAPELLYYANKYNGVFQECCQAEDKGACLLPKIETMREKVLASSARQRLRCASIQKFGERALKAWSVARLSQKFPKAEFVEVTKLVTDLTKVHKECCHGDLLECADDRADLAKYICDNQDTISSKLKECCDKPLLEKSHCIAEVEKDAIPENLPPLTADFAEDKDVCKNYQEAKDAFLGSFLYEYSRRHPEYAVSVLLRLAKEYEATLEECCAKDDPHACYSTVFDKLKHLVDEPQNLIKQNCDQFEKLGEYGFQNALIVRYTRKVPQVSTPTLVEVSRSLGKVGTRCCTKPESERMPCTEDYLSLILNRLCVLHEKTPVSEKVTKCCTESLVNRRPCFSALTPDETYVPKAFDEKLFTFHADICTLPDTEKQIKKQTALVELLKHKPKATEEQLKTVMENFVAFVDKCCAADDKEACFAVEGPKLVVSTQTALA

B1: guinea pig liver transglutaminase (protein)
chain: AEDLILERCDLQLEVNGRDHRTADLCRERLVLRRGQPFWLTLHFEGRGYEAGVDTLTFNAVTGPDPSEEAGTMARFSLSSAVEGGTWSASAVDQQDSTVSLLLSTPADAPIGLYRLSLEASTGYQGSSFVLGHFILLYNPRCPADAVYMDSDQERQEYVLTQQGFIYQGSAKFINGIPWNFGQFEDGILDICLMLLDTNPKFLKNAGQDCSRRSRPVYVGRVVSAMVNCNDDQGVLQGRWDNNYSDGVSPMSWIGSVDILRRWKDYGCQRVKYGQCWVFAAVACTVLRCLGIPTRVVTNFNSAHDQNSNLLIEYFRNESGEIEGNKSEMIWNFHCWVESWMTRPDLEPGYEGWQALDPTPQEKSEGTYCCGPVPVRAIKEGHLNVKYDAPFVFAEVNADVVNWIRQKDGSLRKSINHLVVGLKISTKSVGRDEREDITHTYKYPEGSEEEREAFVRANHLNKLATKEEAQEETGVAMRIRVGQNMTMGSDFDIFAYITNGTAESHECQLLLCARIVSYNGVLGPVCSTNDLLNLTLDPFSENSIPLHILYEKYGDYLTESNLIKVRGLLIEPAANSYVLAERDIYLENPEIKIRVLGEPKQNRKLIAEVSLKNPLPVPLLGCIFTVEGAGLTKDQKSVEVPDPVEAGEQAKVRVDLLPTEVGLHKLVVNFECDKLKAVKGYRNVIIGPA
- [14C]-putrescine cross-linking detected by SDS-PAGE and fluorography [1]: no evidence of cross-linking of [^14C]-putrescine to transglutaminase itself or to BSA was seen
- transglutaminase-mediated incorporation of [14C]-putrescine (TCA-precipitable counts) [1]: BSA served as a negative control
- transglutaminase-mediated incorporation of [14C]-putrescine (TCA-precipitable counts) (N,N' dimethylcasein): Incorporation of [^14C]-putrescine by rHwp1?C37 was equivalent to that of casein, a known substrate of transglutaminases
- transglutaminase-mediated incorporation of a biotinylated lysine analogue into germ tubes (avidin-FITC fluorescence) [2]: Transglutaminase-mediated incorporation of a lysine analogue in the homozygous hwp1/hwp1 mutant strain CAH7-1A (FIG. 2E) was nearly absent as shown by the marked decrease in fluorescence compared to SC5314, CAI4, and CAH7
- [14C]-putrescine cross-linking detected by SDS-PAGE and fluorography (rHwp1ΔC37, P46593): [^14C]-putrescine cross-linking to rHwp1?C37 detected by SDS-PAGE and fluorography required active transglutaminase
- transglutaminase-mediated incorporation of [14C]-putrescine (TCA-precipitable counts) (rHwp1ΔC37, P46593): Incorporation of [^14C]-putrescine by rHwp1?C37 was equivalent to that of casein, a known substrate of transglutaminases
